Experimental data taken from patent US20080260812A1 (TAKAMI MATSUYAMA C O KAGOSHIMA UNIVERSITY, published 2008).

B1: IgG-type FR-β monoclonal antibody clone 94b (antibody, V domains shown)
VH: EVQLQQSGAELVKPGASVRLSCTASGFNIKDTYMYWVKQRPEQGLEWIGRLDPANGNTRYDPKFQGKATITSDTSSNTAYLQLSSLTSEDTAVYYCAGDYPIIDYWGQGTTLTVSS
VL: DIVMSQSPSSLAVSAGEKVTMSCKSSQSLLNSRTRKTYLAWYQQKPGQSPKLLIYWASTRESGVPDRFTGSGSGTEFTLTISSVQAEDLAVYYCKQSYNLWTFGGGTKLEIKR
B2: IgG-type FR-β monoclonal antibody clone 36 (antibody, V domains shown)
VH: QVQLQQSGAELMKPGASLKISCKATGYTFSSYWIEWVKQRPGHGLQWIGEILPGSGSSNYNEKFKGKATFTADTSSNTAYMQLSSLTSEDSAVYYCARRGSSGSYFAMDYWGQGTSVTVSS
VL: DIQMTQSSSSFSVSLGDRVTITCKASEDIYNRLAWYQQKPGNAPRLLISGATSLETGVPLRFSGSGSGKDYTLSITSLQTEDIATYYCQQYWSTPWTFGGGTKLEIK
notes: also called clone 36 antibody; IgG monoclonal antibody against a human FR-β antigen (clone 36)

Key:
[1] = target: T1, folate receptor beta (FR-β) (human, UniProt P14207 17-230); test: flow cytometry on FR-β gene-transfected B300-19 cells
T1 construct: whole, on cells; also called FR-β antigen; human FR-β antigen
Description: Using a mixture of 20 μl of lipofectamine (Gibco BRL), 1 μg of the purified pEF vector insert, and 1 ml of a Hank's balanced salt solution, the FR-β gene was transfected into B300-19 cells which were previously prepared at 1×10⁵ in 24 wells. […] Namely, 5×10⁵ B3001-9 cells were reacted with 0.1 ml of the FR-β antibody (1 mg/ml) at 4° C. for 30 minutes. The cells were washed 3 times with PBS containing 0.1% NaN₃ and 10% fetal calf serum, after which they were reacted with a fluorescence-labeled goat anti-mouse Ig antibody (BIOSOURCE) at 4° C. for 30 minutes. Then, the cells were washed twice with PBS containing 0.1% NaN₃ and 1% fetal calf serum, after which fluorescence of the cells was assayed using EPICS Elite (Coulter).

[2] = target: T2, folate receptor alpha (FR-α) (UniProt P15328 25-234, limits assumed); test: flow cytometry on KB cells, fluorescence-labeled anti-mouse Ig
T2 construct: whole, on cells
T2 sequence (P15328 25-234 limits assumed): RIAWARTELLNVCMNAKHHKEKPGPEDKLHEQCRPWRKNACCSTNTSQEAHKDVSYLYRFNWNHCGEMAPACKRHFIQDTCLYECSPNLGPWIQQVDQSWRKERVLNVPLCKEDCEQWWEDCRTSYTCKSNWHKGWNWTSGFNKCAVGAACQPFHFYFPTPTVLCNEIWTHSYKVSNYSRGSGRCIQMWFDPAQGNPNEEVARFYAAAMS

T1 sequence (P14207 17-230): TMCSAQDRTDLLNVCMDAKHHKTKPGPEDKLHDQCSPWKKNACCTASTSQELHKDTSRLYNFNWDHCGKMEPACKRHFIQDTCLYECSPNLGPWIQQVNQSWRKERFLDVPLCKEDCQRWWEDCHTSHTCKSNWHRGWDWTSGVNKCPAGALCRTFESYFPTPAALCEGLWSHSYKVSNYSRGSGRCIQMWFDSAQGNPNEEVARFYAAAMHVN

Binder | binding result [1] | binding result [2]
B1 | binds | no binding
B2 |  | no binding
